Reference: the supplement of paper PMC10126150
± gives the standard deviation of the averaged measurements.

Test system: ATP
Assay: switch fluorescence ratio, 500 uM ATP over buffer (Cy3 cluster intensity, sum of 5 cycles each) (fold (ratio)); higher = stronger signal-on switching upon ATP binding; sequences stand for … in TCGTCGGCAGCGTCAGATGTGTATAAGAGACAGTTTTTTTTTTTTTTTTTTTTTTTTT…TC
Conditions: aptamer strand: ATP DNA aptamer (quencher-CACCTGGGGGAGTATTGCGGAGGAAGG + anchor), 100 nM annealed; ATP concentration: 500 uM
In short: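 Clusters carrying Cy3-labelled switching strands on a modified Illumina MiSeq flow-cell were annealed to 100 nM quencher-labelled ATP aptamer and imaged in selection buffer. They were imaged again after 15 min with 500 uM ATP at 22 °C, over five buffer/ATP cycles with NaOH stripping and re-annealing in between. For each cluster, the fluorescence ratio is the summed Cy3 intensity of the target cycles divided by that of the buffer cycles, averaged per switch-domain sequence. Clusters outside 100-1000 RFU were left out.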
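Also: ATP exposure 15 min at 22 °C before imaging.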

| Sequence | switch fluorescence ratio |
| --- | --- |
| TTGGTTGGTT | 0.978 ± 0.019 |
| TTGGTTGTTT | 1 ± 0.052 |
| TTGGTTTAAA | 1 ± 0.022 |
| TTGGTTTAGA | 0.979 ± 0.028 |
| TTGGTTTAGT | 1.01 ± 0.025 |
| TTGGTTTCGA | 0.98 ± 0.013 |
| TTGGTTTGGT | 0.988 ± 0.03 |
| TTGGTTTGTC | 0.99 ± 0.037 |
| TTGGTTTTCC | 1.01 ± 0.028 |
| TTGGTTTTCT | 0.994 ± 0.045 |
| TTGGTTTTTC | 1.01 ± 0.025 |
| TTGTAAATGC | 1.26 ± 0.29 |
| TTGTAACATT | 1.015 ± 0.0014 |
| TTGTAATTGC | 1.29 ± 0.34 |
| TTGTACCAAA | 0.992 ± 0.047 |
| TTGTAGACGT | 1.02 ± 0.0093 |
| TTGTAGGACC | 1 ± 0.056 |
| TTGTAGGAGC | 0.965 ± 0.14 |
| TTGTAGGGTT | 1.02 ± 0.024 |
| TTGTAGGTTT | 1.58 ± 0.79 |
| TTGTATAAGA | 1.003 ± 0.0088 |
| TTGTATATGC | 1.16 ± 0.23 |
| TTGTATGGGT | 0.98 ± 0.019 |

| Sequence | switch fluorescence ratio |
| --- | --- |
| TTGTATTGGA | 0.995 ± 0.015 |
| TTGTCCCTTT | 0.9848 ± 0.0074 |
| TTGTCCGCGG | 1.06 ± 0.091 |
| TTGTCGGGCC | 0.964 ± 0.039 |
| TTGTCGGTCT | 0.972 ± 0.018 |
| TTGTCTATGA | 0.986 ± 0.028 |
| TTGTCTTTTT | 0.998 ± 0.015 |
| TTGTGCAAAT | 1.009 ± 0.006 |
| TTGTGCTGGT | 1 ± 0.033 |
| TTGTGCTGTA | 1.02 ± 0.013 |
| TTGTGCTTAA | 0.989 ± 0.052 |
| TTGTGCTTGT | 0.983 ± 0.019 |
| TTGTGGAATG | 1.015 ± 0.0094 |
| TTGTGGCCAT | 0.974 ± 0.022 |
| TTGTGGCGTG | 1 ± 0.034 |
| TTGTGGGGCA | 1.02 ± 0.021 |
| TTGTGGGGTG | 1.01 ± 0.044 |
| TTGTGGTTTC | 1.01 ± 0.017 |
| TTGTGTAGGC | 0.984 ± 0.025 |
| TTGTGTCTTT | 0.986 ± 0.017 |
| TTGTGTGTAT | 0.992 ± 0.017 |
| TTGTGTTCTT | 1.01 ± 0.026 |
| TTGTGTTTAG | 1.016 ± 0.0044 |

| Sequence | switch fluorescence ratio |
| --- | --- |
| TTGTGTTTGG | 0.992 ± 0.014 |
| TTGTTAACTT | 0.985 ± 0.017 |
| TTGTTAGATG | 1.011 ± 0.0066 |
| TTGTTAGGAA | 1.01 ± 0.02 |
| TTGTTAGTT | 1.02 ± 0.03 |
| TTGTTATCCG | 0.964 ± 0.048 |
| TTGTTATGAT | 1.01 ± 0.018 |
| TTGTTATTCG | 1.01 ± 0.087 |
| TTGTTCCAGC | 0.985 ± 0.047 |
| TTGTTCCCGT | 0.9839 ± 0.0013 |
| TTGTTCCTTG | 1.01 ± 0.022 |
| TTGTTCGCCT | 1.02 ± 0.011 |
| TTGTTCTCGC | 1.02 ± 0.048 |
| TTGTTGAAAT | 1.03 ± 0.074 |
| TTGTTGAGGA | 1.01 ± 0.028 |
| TTGTTGAGGC | 1.06 ± 0.1 |
| TTGTTGATTA | 0.9935 ± 0.0089 |
| TTGTTGCAAG | 1.013 ± 0.0079 |
| TTGTTGCTTG | 1.02 ± 0.028 |
| TTGTTGGCGG | 0.994 ± 0.025 |
| TTGTTGGGCA | 1.01 ± 0.032 |
| TTGTTGGTAG | 1.03 ± 0.031 |
| TTGTTGTGGT | 0.987 ± 0.032 |

| Sequence | switch fluorescence ratio |
| --- | --- |
| TTGTTTAATT | 0.979 ± 0.022 |
| TTGTTTATAT | 0.9853 ± 0.0053 |
| TTGTTTATTT | 1.02 ± 0.032 |
| TTGTTTCATG | 1.01 ± 0.025 |
| TTGTTTCGGG | 0.978 ± 0.018 |
| TTGTTTGCAA | 1.52 ± 0.74 |
| TTGTTTGGGG | 0.998 ± 0.026 |
| TTGTTTGTGA | 0.992 ± 0.011 |
| TTGTTTGTTG | 0.994 ± 0.019 |
| TTGTTTTAC | 1.05 ± 0.067 |
| TTGTTTTACT | 1.027 ± 0.0056 |
| TTGTTTTAGG | 0.987 ± 0.047 |
| TTGTTTTCTG | 1.02 ± 0.047 |
| TTGTTTTGAA | 1.006 ± 0.0053 |
| TTGTTTTGTT | 1.04 ± 0.1 |
| TTGTTTTTAC | 1.07 ± 0.052 |
| TTGTTTTTGA | 1.05 ± 0.067 |
| TTTAAAACAG | 1.018 ± 0.0079 |
| TTTAAAAGAA | 0.995 ± 0.039 |
| TTTAAAATAT | 0.998 ± 0.046 |
| TTTAAAGAGG | 0.9813 ± 0.0042 |
| TTTAAAGATC | 1 ± 0.021 |
| TTTAAATAT | 1.03 ± 0.086 |

| Sequence | switch fluorescence ratio |
| --- | --- |
| TTTAAATATG | 0.9942 ± 0.0073 |
| TTTAAATCTC | 0.963 ± 0.014 |
| TTTAAATTAA | 0.9938 ± 0.0026 |
| TTTAACAGTA | 1.04 ± 0.044 |
| TTTAACATAT | 1.022 ± 0.004 |
| TTTAACGATA | 1.07 ± 0.015 |
| TTTAACGATC | 1.01 ± 0.035 |
| TTTAACGGTG | 1.02 ± 0.027 |
| TTTAACTGG | 1.03 ± 0.036 |
| TTTAAGATTT | 1.01 ± 0.03 |
| TTTAAGCGTT | 1.054 ± 0.0066 |
| TTTAAGCTAA | 1.13 ± 0.23 |
| TTTAAGCTGT | 0.978 ± 0.049 |
| TTTAAGGATA | 0.9872 ± 0.0055 |
| TTTAAGGCCT | 1 ± 0.021 |
| TTTAAGGCTC | 0.994 ± 0.032 |
| TTTAAGGGG | 1.02 ± 0.051 |
| TTTAAGGGGT | 0.991 ± 0.051 |
| TTTAAGTAGT | 1.01 ± 0.028 |
| TTTAAGTTTC | 1 ± 0.025 |
| TTTAATACGC | 1.38 ± 0.26 |
| TTTAATATTA | 0.986 ± 0.015 |
| TTTAATCAAA | 0.988 ± 0.014 |

| Sequence | switch fluorescence ratio |
| --- | --- |
| TTTAATGGTT | 1.02 ± 0.039 |
| TTTAATGTCC | 0.976 ± 0.07 |
| TTTAATTGCA | 0.988 ± 0.038 |
| TTTAATTGGG | 0.983 ± 0.039 |
| TTTAATTTGT | 1 ± 0.019 |
| TTTACAAAGT | 0.994 ± 0.049 |
| TTTACCCACT | 1.46 ± 0.073 |
| TTTACCCCAT | 1.05 ± 0.032 |
| TTTACCCTAT | 1.06 ± 0.015 |
| TTTACCTCGA | 1.027 ± 0.0069 |
| TTTACGGGGC | 1 ± 0.017 |
| TTTACGGTGA | 1.02 ± 0.043 |
| TTTACGTCAG | 1.013 ± 0.0034 |
| TTTACTAGAT | 1.05 ± 0.012 |
| TTTACTATAT | 1.04 ± 0.032 |
| TTTACTATGG | 0.9984 ± 0.0023 |
| TTTACTTAGT | 1.02 ± 0.018 |
| TTTACTTGCG | 0.9759 ± 0.0038 |
| TTTACTTTGC | 1.48 ± 0.69 |
| TTTACTTTTT | 1.01 ± 0.027 |
| TTTAGAAAAC | 0.984 ± 0.037 |
| TTTAGAAAAT | 1.01 ± 0.0098 |
| TTTAGAAATC | 1.08 ± 0.16 |

| Sequence | switch fluorescence ratio |
| --- | --- |
| TTTAGAAGGC | 1.08 ± 0.11 |
| TTTAGAAGGG | 0.979 ± 0.051 |
| TTTAGAATGT | 0.994 ± 0.019 |
| TTTAGACCAG | 1.01 ± 0.059 |
| TTTAGACCCT | 1.013 ± 0.0046 |
| TTTAGAGAGC | 0.987 ± 0.051 |
| TTTAGAGGAA | 0.977 ± 0.032 |
| TTTAGAGTTC | 0.997 ± 0.021 |
| TTTAGATTTG | 1.024 ± 0.0048 |
| TTTAGCACAG | 1.06 ± 0.017 |
| TTTAGCAGCT | 0.993 ± 0.014 |
| TTTAGCGACG | 1.069 ± 0.0098 |
| TTTAGCGCGG | 1 ± 0.029 |
| TTTAGCTCTG | 1.02 ± 0.019 |
| TTTAGCTTAT | 0.9798 ± 0.0056 |
| TTTAGGAAAA | 1 ± 0.029 |
| TTTAGGACTT | 0.994 ± 0.021 |
| TTTAGGCAGG | 0.988 ± 0.022 |
| TTTAGGGAAT | 1 ± 0.013 |
